Measured values from patent publication US20120316071A1.

Tests used:
[1] = molecular target: rHuman EGF R/Fc Chimera, CF (R&D Systems Cat#344-ER) (human) (UniProt P00533); assay: Multispot ECL (MSD) titration; antigen spotted on plate; Fab […]; blank spot 149
[2] = molecular target: rHuman EGF R/Fc Chimera, CF (R&D Systems Cat#344-ER) (human) (UniProt P00533); assay: Multispot ECL (MSD) titration; antigen spotted on plate; Fab 1570 nM; blank spot 866
[3] = molecular target: rHuman EGF R/Fc Chimera, CF (R&D Systems Cat#344-ER) (human) (UniProt P00533); assay: Multispot ECL (MSD) titration; antigen spotted on plate; Fab 98.1 nM; blank spot 210
[4] = molecular target: rHuman EGF R/Fc Chimera, CF (R&D Systems Cat#344-ER) (human) (UniProt P00533); assay: Multispot ECL (MSD) titration; antigen spotted on plate; Fab 392.5 nM; blank spot 338

B1: Fab VH1-46_IGHD3-10*01_IGHJ4*01 & O1_IGKJ1*01 (Fab, V domains shown)
VH: QVQLVQSGAEVKKPGASVKVSCKASGYTFTSYYMHWVRQAPGQGLEWMGIINPSGGSTSYAQKFQGRVTMTRDTSTSTVYMELSSLRSEDTAVYYCAREYYYGSGSYYNDYFDYWGQGTLVTVSS
VL: DIVMTQTPLSLPVTPGEPASISCRSSQSLLDSDDGNTYLDWYLQKPGQSPQLLIYTLSYRASGVPDRFSGSGSGTDFTLKISRVEAEDVGVYYCMQRIEFPSWTFGQGTKVEIKR
[1]
  ECL signal: 317
[2]
  ECL signal: 2480
[3]
  ECL signal: 4390
[4]
  ECL signal: 744
